Positions count from the first letter of the chain named. Names may count otherwise.
B1: equine IgG1 G426V (antibody, part only; not given: Variable domains, not shown: another chain or arm of the molecule)
constant: ASTTAPKVFALAPGCGTTSDSTVALGCLVSGYFPEPVKVSWNSGSLTSGVHTFPSVLQSSGFYSLSSMVTVPASTWTSETYICNVVHAASNFKVDKRIEPIPDNHQKVCDMSKCPKCPAPELLGGPSVFIFPPNPKDTLMITRTPEVTCVVVDVSQENPDVKFNWYMDGVEVRTATTRPKEEQFNSTYRVVSVLRIQHQDWLSGKEFKCKVNNQALPQPIERTITKTKGRSQEPQVYVLAPHPDELSKSKVSVTCLVKDFYPPEINIEWQSNGQPELETKYSTTQAQQDSDGSYFLYSKLSVDRNRWQQGTTFTCVVMHEALHNHYTQKNVSKNPGK
B2: equine IgG1 M428K (antibody, part only; not given: variable domains, not shown: another chain or arm of the molecule)
constant: B1 constant with V316G, M318K
B3: equine IgG1 M428W (antibody, part only; not given: variable domains, not shown: another chain or arm of the molecule)
constant: B1 constant with V316G, M318W
B4: equine IgG1 N434A (antibody, part only; not given: Variable domains, not shown: another chain or arm of the molecule)
constant: B1 constant with V316G, N324A
B5: equine IgG1 N434C (antibody, part only; not given: variable domains, not shown: another chain or arm of the molecule)
constant: B1 constant with V316G, N324C
B6: equine IgG1 M428Y (antibody, part only; not given: variable domains, not shown: another chain or arm of the molecule)
constant: B1 constant with V316G, M318Y
B7: equine IgG1 M428T (antibody, part only; not given: variable domains, not shown: another chain or arm of the molecule)
constant: B1 constant with V316G, M318T
B8: equine IgG1 N434E (antibody, part only; not given: variable domains, not shown: another chain or arm of the molecule)
constant: B1 constant with V316G, N324E
B9: equine IgG1 G426Y (antibody, part only; not given: variable domains, not shown: another chain or arm of the molecule)
constant: B1 constant with V316Y
B10: equine IgG1 M428L (antibody, part only; not given: variable domains, not shown: another chain or arm of the molecule)
constant: B1 constant with V316G, M318L
B11: equine IgG1 M428G (antibody, part only; not given: variable domains, not shown: another chain or arm of the molecule)
constant: B1 constant with V316G, M318G
B12: equine IgG1 M428A (antibody, part only; not given: variable domains, not shown: another chain or arm of the molecule)
constant: B1 constant with V316G, M318A
B13: equine IgG1 M428H (antibody, part only; not given: variable domains, not shown: another chain or arm of the molecule)
constant: B1 constant with V316G, M318H
B14: equine IgG1 T286C (antibody, part only; not given: variable domains, not shown: another chain or arm of the molecule)
constant: B1 constant with T174C, V316G
B15: equine IgG1 G426W (antibody, part only; not given: variable domains, not shown: another chain or arm of the molecule)
constant: B1 constant with V316W
B16: equine IgG1 M428N (antibody, part only; not given: Variable domains, not shown: another chain or arm of the molecule)
constant: B1 constant with V316G, M318N
B17: equine IgG1 M428E (antibody, part only; not given: variable domains, not shown: another chain or arm of the molecule)
constant: B1 constant with V316G, M318E
B18: equine IgG1 M428I (antibody, part only; not given: variable domains, not shown: another chain or arm of the molecule)
constant: B1 constant with V316G, M318I
B19: equine IgG1 M428F (antibody, part only; not given: variable domains, not shown: another chain or arm of the molecule)
constant: B1 constant with V316G, M318F
B20: equine IgG1 M428C (antibody, part only; not given: variable domains, not shown: another chain or arm of the molecule)
constant: B1 constant with V316G, M318C
B21: equine IgG1 T286A (antibody, part only; not given: Variable domains, not shown: another chain or arm of the molecule)
constant: B1 constant with T174A, V316G
B22: equine IgG1 M428V (antibody, part only; not given: variable domains, not shown: another chain or arm of the molecule)
constant: B1 constant with V316G, M318V
B23: equine IgG1 M428Q (antibody, part only; not given: Variable domains, not shown: another chain or arm of the molecule)
constant: B1 constant with V316G, M318Q
B24: equine IgG7 wild-type (antibody, part only; not given: variable domains; allotype unstated, not shown: another chain or arm of the molecule)
constant: ASTTAPKVFPLASHSAATSGSTVALGCLVSSYFPEPVTVSWNSGALTSGVHTFPSVLQSSGLYSLSSMVTVPASSLKSQTYICNVAHPASSTKVDKKIVIKECGGCPTCPECLSVGPSVFIFPPKPKDVLMISRTPTVTCVVVDVGHDFPDVQFNWYVDGVETHTATTEPKQEQNNSTYRVVSILAIQHKDWLSGKEFKCKVNNQALPAPVQKTISKPTGQPREPQVYVLAPHRDELSKNKVSVTCLVKDFYPTDIDIEWKSNGQPEPETKYSTTPAQLDSDGSYFLYSKLTVETNRWQQGTTFTCAVMHEALHNHYTEKSVSKSPGK
B25: equine IgG7 A426E mutant (antibody, part only; not given: variable domains, not shown: another chain or arm of the molecule)
constant: B24 constant with A307E
B26: equine IgG7 K311I mutant (antibody, part only; not given: variable domains, not shown: another chain or arm of the molecule)
constant: B24 constant with K190I
B27: equine IgG7 A426H mutant (antibody, part only; not given: variable domains, not shown: another chain or arm of the molecule)
constant: B24 constant with A307H
B28: equine IgG7 A426Q mutant (antibody, part only; not given: variable domains, not shown: another chain or arm of the molecule)
constant: B24 constant with A307Q
B29: equine IgG7 K311G mutant (antibody, part only; not given: variable domains, not shown: another chain or arm of the molecule)
constant: B24 constant with K190G
B30: equine IgG7 A426P mutant (antibody, part only; not given: variable domains, not shown: another chain or arm of the molecule)
constant: B24 constant with A307P
B31: equine IgG7 K311L mutant (antibody, part only; not given: variable domains, not shown: another chain or arm of the molecule)
constant: B24 constant with K190L
B32: equine IgG7 K311W mutant (antibody, part only; not given: variable domains, not shown: another chain or arm of the molecule)
constant: B24 constant with K190W
B33: equine IgG7 K311A mutant (antibody, part only; not given: Variable domains, not shown: another chain or arm of the molecule)
constant: B24 constant with K190A
B34: equine IgG7 A426T mutant (antibody, part only; not given: Variable domains, not shown: another chain or arm of the molecule)
constant: B24 constant with A307T
B35: equine IgG7 A426L mutant (antibody, part only; not given: Variable domains, not shown: another chain or arm of the molecule)
constant: B24 constant with A307L
B36: equine IgG7 K311M mutant (antibody, part only; not given: variable domains, not shown: another chain or arm of the molecule)
constant: B24 constant with K190M
B37: equine IgG7 A426M mutant (antibody, part only; not given: variable domains, not shown: another chain or arm of the molecule)
constant: B24 constant with A307M
B38: equine IgG7 K311F mutant (antibody, part only; not given: variable domains, not shown: another chain or arm of the molecule; small tags and cut ends)
constant: B24 constant with K190F
B39: equine IgG7 K311T mutant (antibody, part only; not given: variable domains, not shown: another chain or arm of the molecule)
constant: B24 constant with K190T
B40: equine IgG7 A426D mutant (antibody, part only; not given: variable domains, not shown: another chain or arm of the molecule)
constant: B24 constant with A307D
B41: equine IgG7 A426K mutant (antibody, part only; not given: variable domains, not shown: another chain or arm of the molecule)
constant: B24 constant with A307K
B42: equine IgG7 K311Q mutant (antibody, part only; not given: Variable domains, not shown: another chain or arm of the molecule)
constant: B24 constant with K190Q
B43: equine IgG7 K311H mutant (antibody, part only; not given: Variable domains, not shown: another chain or arm of the molecule)
constant: B24 constant with K190H
B44: equine IgG7 A426N mutant (antibody, part only; not given: Variable domains, not shown: another chain or arm of the molecule)
constant: B24 constant with A307N
B45: equine IgG7 A426G mutant (antibody, part only; not given: variable domains, not shown: another chain or arm of the molecule)
constant: B24 constant with A307G
B46: equine IgG7 K311N mutant (antibody, part only; not given: variable domains, not shown: another chain or arm of the molecule)
constant: B24 constant with K190N
B47: equine IgG7 A426S mutant (antibody, part only; not given: variable domains, not shown: another chain or arm of the molecule)
constant: B24 constant with A307S
B48: equine IgG7 A426F mutant (antibody, part only; not given: variable domains, not shown: another chain or arm of the molecule)
constant: B24 constant with A307F
B49: equine IgG7 K311S mutant (antibody, part only; not given: variable domains, not shown: another chain or arm of the molecule)
constant: B24 constant with K190S
B50: equine IgG7 K311R mutant (antibody, part only; not given: variable domains, not shown: another chain or arm of the molecule)
constant: B24 constant with K190R
B51: equine IgG7 A426I mutant (antibody, part only; not given: variable domains, not shown: another chain or arm of the molecule)
constant: B24 constant with A307I
B52: equine IgG7 K311D mutant (antibody, part only; not given: Variable domains, not shown: another chain or arm of the molecule)
constant: B24 constant with K190D
B53: equine IgG7 K311V mutant (antibody, part only; not given: variable domains, not shown: another chain or arm of the molecule)
constant: B24 constant with K190V
B54: equine IgG7 A426C mutant (antibody, part only; not given: variable domains, not shown: another chain or arm of the molecule)
constant: B24 constant with A307C
B55: equine IgG7 K311Y mutant (antibody, part only; not given: variable domains, not shown: another chain or arm of the molecule)
constant: B24 constant with K190Y
B56: equine IgG7 A426R mutant (antibody, part only; not given: Variable domains, not shown: another chain or arm of the molecule)
constant: B24 constant with A307R
B57: equine IgG7 K311C mutant (antibody, part only; not given: variable domains, not shown: another chain or arm of the molecule)
constant: B24 constant with K190C
B58: equine IgG7 K311E mutant (antibody, part only; not given: variable domains, not shown: another chain or arm of the molecule)
constant: B24 constant with K190E

The binders below were run against equine FcRn (large alpha subunit p51) / equine beta-2-microglobulin complex, biotinylated (equine) (UniProt P30441) (assay: SPR (Biacore), pH 6).
Sequence of UniProt P30441 (P30441 21-118, one chain of several): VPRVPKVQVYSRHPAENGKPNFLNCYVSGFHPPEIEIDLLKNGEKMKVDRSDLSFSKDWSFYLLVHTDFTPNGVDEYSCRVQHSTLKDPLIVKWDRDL

Binder | Kd
B1 | 8.79 nM
B2 | 28.7 nM
B3 | 31.9 nM
B4 | 6.54 nM
B5 | 42.6 nM
B6 | 17 nM
B7 | 34.8 nM
B8 | 50.6 nM
B9 | 11.9 nM
B10 | 8.76 nM
B11 | 48.8 nM
B12 | 76 nM
B13 | 33.1 nM
B14 | 35.4 nM
B15 | 14.7 nM
B16 | 51.6 nM
B17 | 43.9 nM
B18 | 28 nM
B19 | 17.3 nM
B20 | 47.5 nM
B21 | 18.5 nM
B22 | 65.8 nM
B23 | 32.9 nM

Each binder was assayed against equine FcRn (large alpha subunit p51) in complex with equine beta-2-microglobulin (equine) (UniProt F6XZ61) (assay: SPR (Biacore), pH 6).
Sequence of UniProt F6XZ61 (F6XZ61 entry or part of it, one chain of several): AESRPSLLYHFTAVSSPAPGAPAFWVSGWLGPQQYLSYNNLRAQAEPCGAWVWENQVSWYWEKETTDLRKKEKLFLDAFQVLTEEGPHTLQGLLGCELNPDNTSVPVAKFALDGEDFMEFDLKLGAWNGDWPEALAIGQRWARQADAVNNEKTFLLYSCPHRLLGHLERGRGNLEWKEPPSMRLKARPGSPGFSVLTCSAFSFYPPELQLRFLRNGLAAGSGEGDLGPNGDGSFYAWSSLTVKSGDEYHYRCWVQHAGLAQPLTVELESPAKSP

Binder | Kd
B24 | 21.7 nM
B25 | 13.4 nM
B26 | 15.1 nM
B27 | 18.4 nM
B28 | 18.6 nM
B29 | 20.9 nM
B30 | 23.2 nM
B31 | 17.3 nM
B32 | 22.1 nM
B33 | 24.4 nM
B34 | 26.5 nM
B35 | 15.6 nM
B36 | 10.4 nM
B37 | 22.7 nM
B38 | 20.5 nM
B39 | 19.4 nM
B40 | 18.9 nM
B41 | 17.8 nM

Binder | Kd
B42 | 39.5 nM
B43 | 19 nM
B44 | 15.8 nM
B45 | 13.6 nM
B46 | 38 nM
B47 | 40.4 nM
B48 | 13.2 nM
B49 | 27.6 nM
B50 | 11.8 nM
B51 | 12.6 nM
B52 | 34.1 nM
B53 | 21.3 nM
B54 | 14.4 nM
B55 | 18.9 nM
B56 | 35 nM
B57 | 15.9 nM
B58 | 60 nM

Source: patent US20260070987A1
